Assay results published in patent publication US6379894 (NOVIMAUNE S A, dated 1999).

Target: T1, purified and recombinant USF1 protein (UniProt P22415 1-310, limits assumed)
T1 construct: also called USF1 recombinant factor; USF1 recombinant proteins
Test: EMSA with recombinant proteins on radiolabelled NGE DNA probe, PhosphoImager
Excerpt: We then analysed whether STAT1 and USF1 proteins formed the U complex co-operatively after induction by interferon γ. […] Further, adding increasing quantities of activated STAT1 to a given quantity of USF1 in the presence of an excess of free NGE probe encouraged the formation of STAT1/USF1 complexes rather than binding of USF1 alone.

T1 sequence (P22415 whole entry): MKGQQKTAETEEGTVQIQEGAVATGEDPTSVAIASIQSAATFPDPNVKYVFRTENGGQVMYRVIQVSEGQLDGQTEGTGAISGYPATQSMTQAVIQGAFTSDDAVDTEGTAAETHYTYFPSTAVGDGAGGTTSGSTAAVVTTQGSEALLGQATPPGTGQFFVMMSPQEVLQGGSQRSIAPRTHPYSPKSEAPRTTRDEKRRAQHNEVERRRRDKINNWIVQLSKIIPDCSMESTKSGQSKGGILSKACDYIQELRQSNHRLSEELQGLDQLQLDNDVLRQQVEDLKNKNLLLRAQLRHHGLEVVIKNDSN

B1: purified and activated recombinant STAT1 protein (other, UniProt P42224 1-750, looked up)
chain: MSQWYELQQLDSKFLEQVHQLYDDSFPMEIRQYLAQWLEKQDWEHAANDVSFATIRFHDLLSQLDDQYSRFSLENNFLLQHNIRKSKRNLQDNFQEDPIQMSMIIYSCLKEERKILENAQRFNQAQSGNIQSTVMLDKQKELDSKVRNVKDKVMCIEHEIKSLEDLQDEYDFKCKTLQNREHETNGVAKSDQKQEQLLLKKMYLMLDNKRKEVVHKIIELLNVTELTQNALINDELVEWKRRQQSACIGGPPNACLDQLQNWFTIVAESLQQVRQQLKKLEELEQKYTYEHDPITKNKQVLWDRTFSLFQQLIQSSFVVERQPCMPTHPQRPLVLKTGVQFTVKLRLLVKLQELNYNLKVKVLFDKDVNERNTVKGFRKFNILGTHTKVMNMEESTNGSLAAEFRHLQLKEQKNAGTRTNEGPLIVTEELHSLSFETQLCQPGLVIDLETTSLPVVVISNVSQLPSGWASILWYNMLVAEPRNLSFFLTPPCARWAQLSEVLSWQFSSVTKRGLNVDQLNMLGEKLLGPNASPDGLIPWTRFCKENINDKNFPFWLWIESILELIKKHLLPLWNDGCIMGFISKERERALLKDQQPGTFLLRFSESSREGAITFTWVERSQNGGEPDFHAVEPYTKKELSAVTFPDIIRNYKVMAAENIPENPLKYLYPNIDKDHAFGKYYSRPKEAPEPMELDGPKGTGYIKTELISVSEVHPSRLQTTDNLLPMSPEEFDEVSRIVGSVEFDSMMNTV
modifications: activated form (phosphorylated); the residue numbers are not given
notes: also called STAT1 factor
probe bound to the complex, as fold of the sum of probe bound to USF1 alone and STAT1 alone: ~2 fold
